These results are taken from PMC3218035, “Nuclear Exportin Receptor CAS Regulates the NPI-1–Mediated Nuclear Import of HIV-1 Vpr” (PLoS ONE, 2011).

Test [1] deals with T1, GST-tagged NPI-1 (importin α5), full-length (human, UniProt P52294 1-538).
T1 construct: also called GST-NPI-1; SPR1; source: E. coli BL21 CodonPlus (DE3)-RIL, purified (Glutathione Sepharose 4FF)
Description: pull-down. Conditions: both partners purified.

The target in test [2] is T2, Rch1 404–529 C-terminal peptide mutant, GST cleaved (human, UniProt P52292 404-529).
T2 construct: also called Rch1 C-terminal peptide; source: E. coli BL21 CodonPlus (DE3)-RIL, purified (Glutathione Sepharose 4FF), GST cleaved with PreScission protease
Kind of test: SPR. Conditions: both partners purified.

Test [3] addresses T3, Qip1 (importin α3), full-length, GST cleaved (human, UniProt O00629 1-521).
T3 construct: also called Qip1_(full); full-length Qip1; source: E. coli BL21 CodonPlus (DE3)-RIL, purified (Glutathione Sepharose 4FF), GST cleaved with PreScission protease
T3 sequence (looked up): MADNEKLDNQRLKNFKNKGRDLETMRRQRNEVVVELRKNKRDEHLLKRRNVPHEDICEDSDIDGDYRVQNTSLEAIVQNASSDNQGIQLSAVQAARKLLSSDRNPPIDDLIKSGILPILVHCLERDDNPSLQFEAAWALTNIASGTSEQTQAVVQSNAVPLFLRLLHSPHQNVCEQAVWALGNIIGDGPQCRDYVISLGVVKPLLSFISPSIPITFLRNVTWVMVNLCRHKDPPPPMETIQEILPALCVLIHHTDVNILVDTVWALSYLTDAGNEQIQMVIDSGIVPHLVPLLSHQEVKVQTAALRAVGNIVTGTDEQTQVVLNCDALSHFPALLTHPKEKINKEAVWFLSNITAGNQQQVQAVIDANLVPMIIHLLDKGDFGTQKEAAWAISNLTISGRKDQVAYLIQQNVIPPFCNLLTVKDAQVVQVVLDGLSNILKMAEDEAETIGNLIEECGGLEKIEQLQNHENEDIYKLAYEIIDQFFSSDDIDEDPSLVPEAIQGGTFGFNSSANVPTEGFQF
Description: SPR. Conditions: both partners purified.

Test [4] deals with T4, NPI-1 (importin α5), full-length, GST cleaved (human, UniProt P52294 1-538).
T4 construct: also called NPI-1_(full); full-length NPI-1; source: E. coli BL21 CodonPlus (DE3)-RIL, purified (Glutathione Sepharose 4FF), GST cleaved with PreScission protease
T4 sequence (P52294 whole entry): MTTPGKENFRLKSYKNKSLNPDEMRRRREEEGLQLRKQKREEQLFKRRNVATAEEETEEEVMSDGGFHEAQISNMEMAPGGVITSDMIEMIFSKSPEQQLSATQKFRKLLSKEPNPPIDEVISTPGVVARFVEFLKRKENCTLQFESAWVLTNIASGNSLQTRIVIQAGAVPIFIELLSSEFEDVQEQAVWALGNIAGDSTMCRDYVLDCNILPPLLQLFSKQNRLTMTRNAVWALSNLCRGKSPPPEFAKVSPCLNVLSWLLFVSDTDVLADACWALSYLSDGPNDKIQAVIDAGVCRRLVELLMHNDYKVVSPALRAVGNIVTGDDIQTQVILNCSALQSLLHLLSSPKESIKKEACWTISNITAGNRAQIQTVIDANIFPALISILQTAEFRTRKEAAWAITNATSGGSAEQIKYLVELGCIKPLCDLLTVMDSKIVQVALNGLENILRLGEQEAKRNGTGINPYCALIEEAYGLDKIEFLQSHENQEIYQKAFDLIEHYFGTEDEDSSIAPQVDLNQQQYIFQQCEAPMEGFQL
Kind of test: SPR. The following applies: both partners purified.

Test [5] has as its target T5, Qip1 392–537 C-terminal peptide mutant, GST cleaved (human, UniProt O00629 392-521).
T5 construct: also called Qip1 394–521 (methods); source: E. coli BL21 CodonPlus (DE3)-RIL, purified (Glutathione Sepharose 4FF), GST cleaved with PreScission protease
T5 sequence (looked up): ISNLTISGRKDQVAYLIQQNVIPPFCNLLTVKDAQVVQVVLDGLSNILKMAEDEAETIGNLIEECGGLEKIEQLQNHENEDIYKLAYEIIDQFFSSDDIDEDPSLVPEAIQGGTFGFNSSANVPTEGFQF
Description: SPR. The following applies: both partners purified.

The target of test [6] is T6, NPI-1 404–541 C-terminal peptide mutant, GST cleaved (human, UniProt P52294 404-538).
T6 construct: also called NPI-1 406–538 (methods); source: E. coli BL21 CodonPlus (DE3)-RIL, purified (Glutathione Sepharose 4FF), GST cleaved with PreScission protease
T6 sequence (P52294 404-538, change not shown): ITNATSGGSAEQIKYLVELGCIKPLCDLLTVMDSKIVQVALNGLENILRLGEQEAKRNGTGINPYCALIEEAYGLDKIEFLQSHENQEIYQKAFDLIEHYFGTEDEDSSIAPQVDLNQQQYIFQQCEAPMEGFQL
Kind of test: SPR. The following applies: both partners purified.

In test [7] the target is Rch1 (importin α1), full-length, GST cleaved (human), P52292. Description: SPR. Conditions: remark: other sources report otherwise.

T1 sequence (P52294 whole entry): as the sequence (P52294 whole entry) above

B1: cellular apoptosis susceptibility (CAS) protein, recombinant (natural protein, UniProt P55060 1-971, looked up)
chain: MELSDANLQTLTEYLKKTLDPDPAIRRPAEKFLESVEGNQNYPLLLLTLLEKSQDNVIKVCASVTFKNYIKRNWRIVEDEPNKICEADRVAIKANIVHLMLSSPEQIQKQLSDAISIIGREDFPQKWPDLLTEMVNRFQSGDFHVINGVLRTAHSLFKRYRHEFKSNELWTEIKLVLDAFALPLTNLFKATIELCSTHANDASALRILFSSLILISKLFYSLNFQDLPEFFEDNMETWMNNFHTLLTLDNKLLQTDDEEEAGLLELLKSQICDNAALYAQKYDEEFQRYLPRFVTAIWNLLVTTGQEVKYDLLVSNAIQFLASVCERPHYKNLFEDQNTLTSICEKVIVPNMEFRAADEEAFEDNSEEYIRRDLEGSDIDTRRRAACDLVRGLCKFFEGPVTGIFSGYVNSMLQEYAKNPSVNWKHKDAAIYLVTSLASKAQTQKHGITQANELVNLTEFFVNHILPDLKSANVNEFPVLKADGIKYIMIFRNQVPKEHLLVSIPLLINHLQAESIVVHTYAAHALERLFTMRGPNNATLFTAAEIAPFVEILLTNLFKALTLPGSSENEYIMKAIMRSFSLLQEAIIPYIPTLITQLTQKLLAVSKNPSKPHFNHYMFEAICLSIRITCKANPAAVVNFEEALFLVFTEILQNDVQEFIPYVFQVMSLLLETHKNDIPSSYMALFPHLLQPVLWERTGNIPALVRLLQAFLERGSNTIASAAADKIPGLLGVFQKLIASKANDHQGFYLLNSIIEHMPPESVDQYRKQIFILLFQRLQNSKTTKFIKSFLVFINLYCIKYGALALQEIFDGIQPKMFGMVLEKIIIPEIQKVSGNVEKKICAVGITKLLTECPPMMDTEYTKLWTPLLQSLIGLFELPEDDTIPDEEHFIDIEDTPGYQTAFSQLAFAGKKEHDPVGQMVNNPKIHLAQSLHKLSTACPGRVPSMVSTSLNAEALQYLQGYLQAASVTLL
notes: also called CSE1L; source: E. coli BL21 CodonPlus (DE3)-RIL, purified (Glutathione Sepharose 4FF)
Take B1: the “mRFP-Vpr bound to GST-NPI-1 with CAS and Q69LRanGTP, fold of the sample without CAS” value in test [1] is 0.2 fold.

B2: GST-tagged-Vpr (natural protein)
chain: MEQAPEDQGPQREPYNEWTLELLEELKSEAVRHFPRIWLHNLGQHIYETYGDTWAGVEAIIRILQQLLFIHFRIGCRHSRIGVTRQRRARNGASRS
notes: also called GST-Vpr; source: E. coli, purified (GSH system, His-Trap column), dialyzed against transport buffer
In the case of B2, the Kd was 4.3 µM in test [2]; 6.8 µM in test [3]; 7.4 µM in test [4]; 6.5 µM in test [5]; 6.7 µM in test [6]; 8.9 µM in test [7].

A word on the Kd: it is the free concentration of one partner at which half of the binding sites on the other are occupied at equilibrium, for simple one-to-one binding. A low value points to higher affinity.
